Laboratory results taken from publication PMC4120840.
Changes are numbered by the printed parent chain. Names and notes keep the numbering of the source.

Substrate: Nc1ncnc2c1ncn2[C@@H]1O[C@H](COP(=O)(O)OP(=O)(O)OP(=O)(O)O)[C@@H](O)[C@H]1O
Assay: purified protein
Assay type: biochemical, Homo sapiens
Conditions: MgCl2 UBA3 nucleotide binding pocket

B1: UBA3 (NEDD8 activating enzyme, NAE) (Homo sapiens) (protein)
chain: ADGEEPEKKRRRIEELLAEKMAVDGGCGDTGDWEGRWNHVKKFLERSGPFTHPDFEPSTESLQFLLDTCKVLVIGAGGLGCELLKNLALSGFRQIHVIDMDTIDVSNLNRQFLFRPKDIGRPKAEVAAEFLNDRVPNCNVVPHFNKIQDFNDTFYRQFHIIVCGLDSIIARRWINGMLISLLNYEDGVLDPSSIVPLIDGGTEGFKGNARVILPGMTACIECTLELYPPQVNFPMCTIASMPRLPEHCIEYVRMLQWPKEQPFGEGVPLDGDDPEHIQWIFQKSLERASQYNIRGVTYRLTQGVVKRIIPAVASTNAVIAAVCATEVFKIATSAYIPLNNYLVFNDVDGLYTYTFEAERKENCPACSQLPQNIQFSPSAKLQEVLDYLTNSASLQMKSPAITATLEGKNRTLYLQSVTSIEERTRPNLSKTLKELGLVDGQELAVADVTTPQTVLFKLHFTS
Km: 243 µM

B2: UBA3 A171T (NEDD8 activating enzyme, NAE (UBA3 A171T)) (Homo sapiens; A171T) (protein)
chain: B1 chain with A170T
Km: 1006 µM
